Paper PMC5341729 (Molecular Biology of the Cell, 2017)

B1: CHD4(561-936)^PREY (domain or fragment)
chain: QVMFRNYQRKNDMDEPPSGDFGGDEEKSRKRKNKDPKFAEMEERFYRYGIKPEWMMIHRILNHSVDKKGHVHYLIKWRDLPYDQASWESEDVEIQDYDLFKQSYWNHRELMRGEEGRPGKKLKKVKLRKLERPPETPTVDPTVKYERQPEYLDATGGTLHPYQMEGLNWLRFSWAQGTDTILADEMGLGKTVQTAVFLYSLYKEGHSKGPFLVSAPLSTIINWEREFEMWAPDMYVVTYVGDKDSRAIIRENEFSFEDNAIRGGKKASRMKKEASVKFHVLLTSYELITIDMAILGSIDWACLIVDEAHRLKNNQSKFFRVLNGYSLQHKLLLTGTPLQNNLEELFHLLNFLTPERFHNLEGFLEEFADIAKEDQI
B2: mCherry-MYRIP (MYO7A-Rab interacting protein), MYRIP^PREY (natural protein)
chain: MGRKLDLSGLTDDETEHVLQVVQRDFNLRKKEEERLSELKQKLDEEGSKCSILSKHQQFVEHCCMRCCSPFTFLVNTKRQCGDCKFNVCKSCCSYQKHEKAWVCCVCQQARLLRAQSLEWFYNNVKSRFKRFGSAKVLKNLYRKHRLESGACFDILGGSLFESNLENEGSISGSDSTFYRQSEGHSVMDTLAVALRVAEEAIEEAISKAEAYGDSLDKQNEASYLRDHKEELTEELATTILQKIIRKQKSKSEQQVEEEPGWPHPQSCSTKVADEGTSASPGGYRAPAALWRSQSAFSITGEEALKTPPVEAPSRQPRDQGQHPRAESALPSWKSVDRLDETNLAPVLQSPDGNWVALKDGAPPPTRLLAKPKSGTFQALEVASSVASAYDEMGSDSEEDFDWSEALSKLCPRSRALPRNPQPQPTQAQSSDQGPIAASPSSALSPNPEAMCSDSETSSAGSSREVGHQARLSWLQRKAPRNPAAEKMRLHGELDVNFNPQLASRETSDSSEPEEAPHTTDRRARRWRRARLGSEEPSKEPSSPSAQLRDLDTHQVSDDLSETDISNEARDPQTLTDTTEEKRRNRLYELAMKMSEKETSSGEDQESEPKTESENQKESLSSEDNSQSVQEELKKKFSAVSLCNISTEVLKVINATEELIAGSTGPWESPQVPPDRQKGMFPRGTDQVRLDEQLTSLEENVYLAAGTVYGLETQLTELEDAARCIHSGTDETHLADLEDQVATAAAQVHHAELQISDIESRISALTIAGLNIAPCVRFTRRRDQKQRTQVQTIDTSRQQRRKLPAPPVKAEKIETSSVTTIKTFNHNFILQGSSTNRTKERKGTTKDLMEPALESAVMY

Experiments:
[1] = target: T1, MYO10-TPRN^BAIT (taperin fused to MYO10^HMM) (mouse, UniProt A2AI08 1-749); assay: NanoSPD
T1 sequence: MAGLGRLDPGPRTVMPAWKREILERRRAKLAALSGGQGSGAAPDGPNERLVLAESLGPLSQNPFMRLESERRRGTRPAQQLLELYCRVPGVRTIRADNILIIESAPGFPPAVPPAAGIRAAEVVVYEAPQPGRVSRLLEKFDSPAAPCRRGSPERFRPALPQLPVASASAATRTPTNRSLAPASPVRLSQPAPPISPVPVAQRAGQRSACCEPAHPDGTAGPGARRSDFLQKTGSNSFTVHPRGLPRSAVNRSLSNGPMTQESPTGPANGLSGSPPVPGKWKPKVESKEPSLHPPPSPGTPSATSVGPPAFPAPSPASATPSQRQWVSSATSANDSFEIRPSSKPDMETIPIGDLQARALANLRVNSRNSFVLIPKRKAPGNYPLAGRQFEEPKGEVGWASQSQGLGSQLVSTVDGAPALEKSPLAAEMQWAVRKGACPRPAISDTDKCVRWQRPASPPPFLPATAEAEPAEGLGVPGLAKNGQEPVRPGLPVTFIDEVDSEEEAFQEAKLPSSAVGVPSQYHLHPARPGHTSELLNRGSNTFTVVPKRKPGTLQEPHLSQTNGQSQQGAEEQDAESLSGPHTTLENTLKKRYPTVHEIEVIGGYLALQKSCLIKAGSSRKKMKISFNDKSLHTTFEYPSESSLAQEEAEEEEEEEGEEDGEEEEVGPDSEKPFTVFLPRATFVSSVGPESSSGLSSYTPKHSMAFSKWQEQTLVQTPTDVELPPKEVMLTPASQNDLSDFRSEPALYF

[2] = target: T2, MYO10-MYO7A(TAIL)^BAIT (EGFP-MYO10^HMM fused to the tail domain of MYO7A) (UniProt Q13402 858-2215); assay: NanoSPD
T2 sequence: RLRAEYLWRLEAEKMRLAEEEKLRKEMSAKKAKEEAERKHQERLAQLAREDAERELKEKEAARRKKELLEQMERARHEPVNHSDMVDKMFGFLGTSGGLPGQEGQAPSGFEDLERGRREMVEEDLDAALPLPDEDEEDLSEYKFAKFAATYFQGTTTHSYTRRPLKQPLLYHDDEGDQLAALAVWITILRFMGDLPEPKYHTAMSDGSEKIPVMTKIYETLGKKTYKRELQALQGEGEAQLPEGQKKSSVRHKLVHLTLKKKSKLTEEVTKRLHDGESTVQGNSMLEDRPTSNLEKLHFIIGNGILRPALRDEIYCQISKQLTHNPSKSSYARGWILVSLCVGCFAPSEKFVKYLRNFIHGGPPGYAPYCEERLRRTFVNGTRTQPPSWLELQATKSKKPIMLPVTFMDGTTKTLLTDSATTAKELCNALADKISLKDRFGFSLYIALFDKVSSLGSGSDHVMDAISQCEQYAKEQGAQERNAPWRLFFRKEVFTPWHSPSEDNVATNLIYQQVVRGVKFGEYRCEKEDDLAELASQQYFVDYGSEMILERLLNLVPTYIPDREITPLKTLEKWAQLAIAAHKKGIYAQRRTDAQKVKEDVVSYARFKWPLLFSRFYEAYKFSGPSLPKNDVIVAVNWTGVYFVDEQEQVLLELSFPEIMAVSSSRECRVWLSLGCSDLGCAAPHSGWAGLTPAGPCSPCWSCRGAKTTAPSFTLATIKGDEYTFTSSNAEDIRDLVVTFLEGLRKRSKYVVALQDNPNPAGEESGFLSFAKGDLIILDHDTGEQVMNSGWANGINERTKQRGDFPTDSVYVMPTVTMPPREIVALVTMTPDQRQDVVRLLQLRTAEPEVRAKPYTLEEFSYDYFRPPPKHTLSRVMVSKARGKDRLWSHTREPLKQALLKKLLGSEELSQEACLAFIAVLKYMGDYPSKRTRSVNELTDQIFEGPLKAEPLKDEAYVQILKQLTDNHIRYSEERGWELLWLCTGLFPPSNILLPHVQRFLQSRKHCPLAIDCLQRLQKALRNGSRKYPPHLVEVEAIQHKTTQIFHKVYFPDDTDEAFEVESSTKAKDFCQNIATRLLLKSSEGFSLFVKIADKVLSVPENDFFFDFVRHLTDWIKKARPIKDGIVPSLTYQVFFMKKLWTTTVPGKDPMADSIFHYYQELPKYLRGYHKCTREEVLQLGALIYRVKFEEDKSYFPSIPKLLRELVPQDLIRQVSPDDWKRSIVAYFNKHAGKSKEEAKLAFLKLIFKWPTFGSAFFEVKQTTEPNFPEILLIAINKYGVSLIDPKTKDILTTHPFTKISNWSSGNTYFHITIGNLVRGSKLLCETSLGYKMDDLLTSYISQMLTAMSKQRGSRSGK

Binder | fold increase of prey fluorescence at filopodial tips against MYO10^(NO BAIT) [1] [fold] | fold increase of prey fluorescence at filopodial tips against MYO10^(NO BAIT) [2] [fold]
B1 | 7 | 
B2 |  | 11.8
